Blank lines part the entries; values can stand above or below the substance they belong to.
What was measured:
[1] = target: NGF in the sSorCS2-NGF crystal (degradation product of the proNGF construct) (UniProt P01139); assay: crystal structure; sSorCS2 mixed with proNGF 1:1.1, 1 mM calcium chloride; proNGF degraded to NGF in the drop; 0.225 M MES/bis-tris pH 6.6; 3.9 Å
[2] = target: mouse SorCS2 mature extracellular segment (sSorCS2, residues 117-1072) (mouse) (UniProt Q9EPR5); assay: as above
[3] = target: mouse mature nerve growth factor (NGF) (mouse) (UniProt P01139); assay: SPR; IBIS MX96; NGF, proNGF and proBDNF amine-coupled to a P-COOH SensEye sensor; wt and mutant sSorCS2 flowed as analyte; 25 mM HEPES pH 7.4, 150 mM NaCl, 0.005 % Tween 20; 25 °C; equilibrium binding, one site saturation model (two site saturation model for proBDNF)
[4] = target: pro-nerve growth factor (proNGF, residues 19-241, furin sites changed to AA) (UniProt P01139); assay: as above

Chain of mouse mature nerve growth factor (NGF) (mouse) (P01139 122-241): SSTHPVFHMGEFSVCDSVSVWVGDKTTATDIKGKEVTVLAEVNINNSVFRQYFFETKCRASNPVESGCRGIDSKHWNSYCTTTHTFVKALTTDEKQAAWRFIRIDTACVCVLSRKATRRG
Chain of mouse SorCS2 mature extracellular segment (sSorCS2, residues 117-1072) (mouse) (Q9EPR5 117-1072): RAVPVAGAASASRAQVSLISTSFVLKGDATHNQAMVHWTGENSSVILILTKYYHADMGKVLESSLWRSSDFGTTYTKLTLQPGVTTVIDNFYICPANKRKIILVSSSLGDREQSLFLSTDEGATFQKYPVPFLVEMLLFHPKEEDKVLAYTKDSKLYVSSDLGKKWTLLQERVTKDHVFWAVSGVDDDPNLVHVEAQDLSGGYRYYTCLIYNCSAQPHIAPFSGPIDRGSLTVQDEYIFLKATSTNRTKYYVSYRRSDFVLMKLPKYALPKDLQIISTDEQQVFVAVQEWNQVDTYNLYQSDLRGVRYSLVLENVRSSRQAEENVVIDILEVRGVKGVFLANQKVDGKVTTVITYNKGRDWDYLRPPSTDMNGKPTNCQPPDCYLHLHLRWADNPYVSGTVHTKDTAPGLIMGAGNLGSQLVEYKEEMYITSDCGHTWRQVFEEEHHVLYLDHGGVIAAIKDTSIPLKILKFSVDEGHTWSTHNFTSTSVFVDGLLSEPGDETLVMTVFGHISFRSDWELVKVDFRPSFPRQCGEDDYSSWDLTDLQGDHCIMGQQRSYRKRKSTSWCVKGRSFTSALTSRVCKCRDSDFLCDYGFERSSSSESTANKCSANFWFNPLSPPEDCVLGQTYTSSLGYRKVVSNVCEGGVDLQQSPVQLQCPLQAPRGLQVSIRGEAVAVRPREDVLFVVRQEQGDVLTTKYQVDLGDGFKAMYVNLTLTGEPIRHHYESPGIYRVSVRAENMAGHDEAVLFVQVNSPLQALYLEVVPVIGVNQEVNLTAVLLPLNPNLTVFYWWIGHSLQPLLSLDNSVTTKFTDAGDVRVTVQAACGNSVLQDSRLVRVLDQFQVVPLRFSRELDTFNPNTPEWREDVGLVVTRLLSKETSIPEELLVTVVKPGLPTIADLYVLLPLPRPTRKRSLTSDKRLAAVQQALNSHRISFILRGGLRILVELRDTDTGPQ
Chain of mouse SorCS2 mature extracellular segment (sSorCS2, residues 117-1072), Q9EPR5 117-1072 (receptor; other documents disagree on this pair) (Q9EPR5 117-1072): as above
Chain of mouse SorCS2 mature extracellular segment (sSorCS2, residues 117-1072) (Q9EPR5 117-1072): as above

stoichiometry N [1]: 2 | stoichiometry N (NGF chains per sSorCS2 chain) [2]: 2
Substance: NGF in the sSorCS2-NGF crystal (degradation product of the proNGF construct) (from UniProt P01139 122-241) (ligand)

Kd [3]: 236 nM
Substance: mouse SorCS2 mature extracellular segment (sSorCS2, residues 117-1072), Q9EPR5 117-1072 (receptor; other documents disagree on this pair)

Kd [4]: 43 nM
Substance: mouse SorCS2 mature extracellular segment (sSorCS2, residues 117-1072) (from UniProt Q9EPR5 117-1072) (receptor)

From publication PMC6065357
